Source: IntAct's records for PubMed 28441531

B1: Myelin regulatory factor homolog 1 (Caenorhabditis elegans), G5EFI7 (parent)
chain: MSSSDLLKGEFDGLNSEHFNMMQYLTQDTDEDDGSMVSPTSSADSMHQNLGVQQQQQQMLQAQQRQNQNGIFQPRRFPESPAMTDPCGNVSSSSSSSHHSDPMFSPNEFNGYAGANDNGNQTMNNIQSQQLSQQQHQQTRGGNLMMPQQSSIHAQMQNMNAPQFWSQPGTAAVNQPTNTLAQLNLFNIIRGGADSGMPSPVLEMPRKRSRLDTPCETPRIAPSFAGIDGFPDENYSQQQAIRFSKFQEEQWSPLYDINAQPLQQLQVHVVADKGFNYNSNDNCFVNQKKNHFQISVNVEASDTMPPKYVNFNNRLVPIRDFKLSFCGVKAEMPSSEITIRQSRADRKPHTHTPVLFEIQERRMTKVCVPRLHFSETTLNNQRKQKNRPNPEQKFFLLVVRLFASIDESEHGVLIQSYASEKVIVRATNPGSFEPQDTDIGWQRNGGALYTQGAVSVGTEHQVESAKLTVAGDIYMSGRIINPSDIRLKEAITERETAEAIENLLKLRVVDYRYKPEVADIWGLDEQQRHRTGLIAQELQAVLPDAVRDIGDYLTIDEGRVFYETVMATQQLCRMTGDLDSKIDEKVAEISRRLNEYAVRKKLASSMASNLNGDNKSLSYSRCSLTSTATNATSQPKRSRKHRAIKQAQSCGSRLSQGTVVTLVSIMAACLLAMSALYVLDWHNRNYGYHQHFETNTPSTKGELANLVISPANFMPSFQPDAPILLEKCFNPSCKTYCCTDTPPVVEDSRAIATHGLDNGDEVYPESPSNRTNGIARAPNLEHMAFETGVEIRIPALNVTLDQRYCVERSCNKRKGIFNVFVPVSRYMPDVALEIEIKAPISKVVSNCGAFPSTEFNHKVCPLSRTQQSESPVPTSTRLFDNIFELSMGSFIQSAYRFRVGYSTETCFSEDSNGSYEEYNLIFYRMCTLSSS
partner: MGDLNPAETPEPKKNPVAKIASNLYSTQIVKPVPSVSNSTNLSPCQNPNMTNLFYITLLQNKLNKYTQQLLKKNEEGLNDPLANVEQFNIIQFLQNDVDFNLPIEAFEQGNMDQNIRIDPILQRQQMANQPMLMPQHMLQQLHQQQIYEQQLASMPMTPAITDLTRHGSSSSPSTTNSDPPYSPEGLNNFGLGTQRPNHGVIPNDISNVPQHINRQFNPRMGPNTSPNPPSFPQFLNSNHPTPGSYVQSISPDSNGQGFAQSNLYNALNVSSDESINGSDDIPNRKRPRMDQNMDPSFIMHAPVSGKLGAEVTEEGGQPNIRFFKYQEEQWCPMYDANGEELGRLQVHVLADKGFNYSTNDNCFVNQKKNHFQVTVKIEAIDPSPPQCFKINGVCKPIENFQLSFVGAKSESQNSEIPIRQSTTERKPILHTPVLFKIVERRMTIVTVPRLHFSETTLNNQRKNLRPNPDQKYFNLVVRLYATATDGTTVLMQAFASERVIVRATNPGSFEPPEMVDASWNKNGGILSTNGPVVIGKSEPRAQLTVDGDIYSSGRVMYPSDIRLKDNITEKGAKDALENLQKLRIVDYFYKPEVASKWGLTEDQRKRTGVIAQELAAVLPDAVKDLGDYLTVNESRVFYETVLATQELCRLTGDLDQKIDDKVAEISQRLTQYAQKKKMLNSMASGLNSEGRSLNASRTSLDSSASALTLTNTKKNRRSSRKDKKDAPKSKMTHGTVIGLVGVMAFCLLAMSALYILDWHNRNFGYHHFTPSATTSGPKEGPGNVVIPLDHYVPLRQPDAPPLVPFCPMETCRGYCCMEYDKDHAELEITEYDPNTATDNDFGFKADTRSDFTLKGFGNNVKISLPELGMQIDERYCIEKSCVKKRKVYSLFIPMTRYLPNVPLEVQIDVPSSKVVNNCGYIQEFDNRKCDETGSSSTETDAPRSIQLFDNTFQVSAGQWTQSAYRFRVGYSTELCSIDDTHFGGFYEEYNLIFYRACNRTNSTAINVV

Variants of: B1
Conditions: with myrf2_caeel myrf-2, D9PTN5

| Variant | effect of a mutation on the interaction |
| --- | --- |
| G274R | with no effect |
